The record followed here is US20230117205A1, “B7-H4 ANTIBODY-DRUG CONJUGATES FOR THE TREATMENT OF CANCER” (SEAGEN INC., priority 2021, published 2023).

The target in series [1] is T1, recombinant human B7-H4 protein (Homo sapiens, UniProt Q7Z7D3).
T1 construct: B7-H4 extracellular domain Phe29-Ala258 with a C-terminal 10-His tag
T1 sequence (Q7Z7D3 29-258): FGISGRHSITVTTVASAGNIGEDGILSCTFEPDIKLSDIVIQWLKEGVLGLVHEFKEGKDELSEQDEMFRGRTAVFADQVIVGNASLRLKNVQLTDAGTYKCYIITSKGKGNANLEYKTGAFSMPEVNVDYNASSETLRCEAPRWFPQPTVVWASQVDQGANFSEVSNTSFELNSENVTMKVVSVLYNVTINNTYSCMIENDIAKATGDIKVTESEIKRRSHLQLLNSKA
Nature of the series: BLI binding to recombinant human B7-H4 (monovalent and bivalent formats). The conditions noted are these: mAb compared with ADC.

Series [2] is described as follows: Non-human primate (NHP) and rat tox study. Type of series: in vivo, rat and cynomolgus monkey. An excerpt:
The nonclinical safety profile of SGN-B7H4V supports the proposed initial clinical development plan. […] The hematologic toxicity is consistent with the mechanism of action (MOA) for MMAE.

Series [3] concerns F4/80+ macrophages in MDA-MB-468 xenograft tumors. Nature of the series: IHC for F4/80+ macrophages in MDA-MB-468 xenograft tumors. It is filed as in vivo, NSG mice. Conditions: single 3 mg/kg dose; 7 days after treatment. The method, then:
Specifically, female NSG mice were implanted with 1×10^6 MDA-MB-468 cells in 25% Matrigel H C subcutaneously. Once tumor volumes reached ˜250-300 mm^3, mice were randomized into treatment groups of 6 mice each and treated with a single 3 mg/kg dose of ADC or mAb, or vehicle control (20 mM Histidine buffer, pH 6.0) injected intraperitoneally (i.p.). Stock concentrations of ADC were diluted to desired concentration with 20 mM Histidine buffer, pH 6.0 or and stock concentration of mAb were diluted to desired concentration with 0.01% Tween20 in PBS. Twenty-four hours prior to dosing, each animal was treated with 10 mg/kg hIVIG. One week following treatment, tumors were harvested, cut in half, and processed for RNAseq (frozen at −80° C.) or formalin-fixed and paraffin-embedded for immunohistochemical (IHC) analysis.
For IHC, FFPE blocks were sectioned at 4 μm and sections were placed on charged slides. Slides were baked for 1 hr at 60° C. […]
Scanned images were analyzed with Halo image analysis software v. 3.1.1076 (Indica Labs), using the area quantification algorithm for CD11c and F4/80 and the cytonuclear algorithm for all other antibodies. […] Percent area of positive tissue, tumor and stroma were determined. […]

Series [4] concerns SKBR3, MX-1, and 293T-B7-H4. Nature of the series: NK cell-mediated ADCC. Type of series: cell-based, human. Conditions: NK effector cells, 4 hours. An excerpt:
Antibodies directed to cell surface antigens can elicit direct killing of antibody-coated cells, including induction of ADCC.
Human PBMCs were thawed into pre-warmed R10+ Media (RPMI 1640 (Gibco #11875-093) with 10% HI-FBS (Gibco #16140-071), 1× sodium pyruvate (Gibco #11360-070), and 1× GlutaMax (Gibco #35050-061)) and then an EasySep NK isolation kit (StemCell #17955) was used to purify NK cells. Target tumor cells were lifted off using TrypLE Express (Gibco #12604-021) and then plated into a U-bottom plate (Falcon #353077) at 40,000 cells/well (50 μL/well) for MX-1 and 293T-B7-H4 (HEK 293T cells engineered to express human B7-H4) and 20,000 cells/well (50 μL/well) for SKBR3 cell line. […] (NOTE: actual starting concentration was 6000 ng/mL to account for the inherent 3× dilution of the assay.) Then 200,000 cells/well (50 μL/well) of isolated NK cells were plated into the U-bottom plate (effector: tumor ratios were as follows: NK:SKBR3 cells 10:1; NK:MX1 cells 5:1, NK:293T-B7-H4 cells 5:1). Appropriate controls included: positive control mAb and ADC and negative non-binding control mAb and ADC, NK cells only control, target cells only control, target cells maximum lysis control, and media only control. […] A CytoTox 96 Non-Radioactive Cytotoxicity Assay kit (Promega #G1780) was used to develop the signal, which was read using 490 nm wavelength on a SpectraMax 190 instrument.

On to “SGN-B7H4V: ADC of fully human IgG1 anti-B7-H4 mAb conjugated to monomethyl auristatin E (MMAE) via a protease-cleavable valine-citrulline linker (vedotin)”, for which the “binding affinities for hB7-H4” value in series [1] is “similar”. The “primary target organs of toxicity” value in series [2] (pivotal GLP and non-GLP studies) is “hematological system, testes, and ovaries”. Also, in series [2] (rat and cynomolgus monkey), the tolerability result was “tolerated in the rat and cynomolgus monkey”. Further, the “proportion of F4/80+ macrophages in tumor nest and stroma” value in series [3] was “increase in the proportion of F4/80+ macrophages”. In series [4], the ADCC response entry is reported as “comparable ADCC responses”.
